Source: patent publication US20130209454A1
Where two headings read alike, the source gives them in different places.

Tests used:
Test in all cases: cell-based or functional assay
[1] = molecular target: HIV-1 strain 928-28 envelope (gp120) (HIV-1)
[2] = molecular target: HIV-1 Env of strain 211-9 (HIV-1)
[3] = molecular target: HIV-1 Env of strain C1080.c03 (HIV-1)
[4] = molecular target: HIV-1 Env of strain ZM233M.PB6 (HIV-1)
[5] = molecular target: HIV-1 strain P0402_c2_11 envelope (gp120) (HIV-1)
[6] = molecular target: HIV-1 Env of strain WEAU_d15_410_787 (HIV-1)
[7] = molecular target: HIV-1 Env of strain TRO.11 (HIV-1)
[8] = molecular target: HIV-1 strain 3103.v3.c10 envelope (gp120) (HIV-1)
[9] = molecular target: HIV-1 Env of strain T278-50 (HIV-1)
[10] = molecular target: HIV-1 Env of strain PVO.4 (HIV-1)
[11] = molecular target: HIV-1 strain R2184.04 envelope (gp120) (HIV-1)
[12] = molecular target: HIV-1 Env of strain ZM197M.PB7 (HIV-1)
[13] = molecular target: HIV-1 strain 6540.v4.c1 envelope (gp120) (HIV-1)
[14] = molecular target: HIV-1 Env of strain QH0692.42 (HIV-1)
[15] = molecular target: HIV-1 strain ZM135M.PL10a envelope (gp120) (HIV-1)
[16] = molecular target: HIV-1 Env of strain 703357.C02 (HIV-1)
[17] = molecular target: HIV-1 Env of strain P0402_c2_11 (HIV-1)
[18] = molecular target: HIV-1 Env of strain Q461.e2 (HIV-1)
[19] = molecular target: HIV-1 Env of strain Du172.17 (HIV-1)
[20] = molecular target: HIV-1 strain C2101.c01 envelope (gp120) (HIV-1)
[21] = molecular target: HIV-1 Env of strain 3016.v5.c45 (HIV-1)
[22] = molecular target: HIV-1 strain Du172.17 envelope (gp120) (HIV-1)
[23] = molecular target: HIV-1 strain CNE17 envelope (gp120) (HIV-1)
[24] = molecular target: HIV-1 Env of strain ZM247v1(Rev-) (HIV-1)
[25] = molecular target: HIV-1 strain 211-9 envelope (gp120) (HIV-1)
[26] = molecular target: HIV-1 Env of strain CNE53 (HIV-1)
[27] = molecular target: HIV-1 strain 6545.v4.c1 envelope (gp120) (HIV-1)
[28] = molecular target: HIV-1 Env of strain ZM109F.PB4 (HIV-1)
[29] = molecular target: HIV-1 strain 89-F1_2_25 envelope (gp120) (HIV-1)
[30] = molecular target: HIV-1 Env of strain R1166.c01 (HIV-1)
[31] = molecular target: HIV-1 Env of strain REJO4541.67 (HIV-1)
[32] = molecular target: HIV-1 Env of strain ZM249M.PL1 (HIV-1)
[33] = molecular target: HIV-1 strain Du422.1 envelope (gp120) (HIV-1)
[34] = molecular target: HIV-1 strain 3415.v1.c1 envelope (gp120) (HIV-1)
[35] = molecular target: HIV-1 Env of strain 1054_07_TC4_1499 (HIV-1)
[36] = molecular target: HIV-1 strain 3301.v1.c24 envelope (gp120) (HIV-1)
[37] = molecular target: HIV-1 strain Q23.17 envelope (gp120) (HIV-1)
[38] = molecular target: HIV-1 Env of strain X1193_c1 (HIV-1)
[39] = molecular target: HIV-1 Env of strain Ce0393_C3 (HIV-1)
[40] = molecular target: HIV-1 strain 6480.v4.c25 envelope (gp120) (HIV-1)
[41] = molecular target: HIV-1 Env of strain 3415.v1.c1 (HIV-1)
[42] = molecular target: HIV-1 strain T257-31 envelope (gp120) (HIV-1)
[43] = molecular target: HIV-1 Env of strain 6480.v4.c25 (HIV-1)
[44] = molecular target: HIV-1 strain T278-50 envelope (gp120) (HIV-1)
[45] = molecular target: HIV-1 strain TRJO4551.58 envelope (gp120) (HIV-1)
[46] = molecular target: HIV-1 Env of strain TRO.11 (HIV-1); remark: listed apart in the source
[47] = molecular target: HIV-1 Env of strain CAP45.2.00.G3 (HIV-1)
[48] = molecular target: HIV-1 Env of strain SC422661.8 (HIV-1)
[49] = molecular target: HIV-1 Env of strain CAP210.2.00.E8 (HIV-1)
[50] = molecular target: HIV-1 Env of strain AC10.0.29 (HIV-1)

B1: NIH45-46^G54F IgG (antibody, name in Kabat numbering, V domains shown)
VH: QVRLSQSGGQMKKPGESMRLSCRASGYEFLNCPINWIRLAPGRRPEWMGWLKPRFGAVNYARKFQGRVTMTRDVYSDTAFLELRSLTSDDTAVYFCTRGKYCTARDYYNWDFEHWGRGAPVTVSS
VL: EIVLTQSPATLSLSPGETAIISCRTSQSGSLAWYQQRPGQAPRLVIYSGSTRAAGIPDRFSGSRWGADYNLSISNLESGDFGVYYCQQYEFFGQGTKVQVDI
Question: Which results are given for B1?
Answer: neutralization IC80 [1]: 0.41 mg/L; neutralization IC50 [2]: > 50 mg/L; neutralization IC50 [3]: 0.36 mg/L; neutralization IC50 [4]: 0.22 mg/L; neutralization IC80 [5]: 0.047 mg/L; neutralization IC50 [6]: < 0.001 mg/L; neutralization IC50 [7]: 0.11 mg/L; neutralization IC80 [8]: 1.28 mg/L; neutralization IC50 [9]: > 50 mg/L; neutralization IC50 [10]: 0.07 mg/L; neutralization IC80 [11]: 0.054 mg/L; neutralization IC50 [12]: 0.09 mg/L; neutralization IC80 [13]: > 50 mg/L; neutralization IC50 [14]: 0.56 mg/L; neutralization IC80 [15]: 0.43 mg/L; neutralization IC50 [16]: 7.91 mg/L; neutralization IC50 [17]: 0.008 mg/L; neutralization IC50 [18]: 0.03 mg/L; neutralization IC50 [19]: > 50 mg/L; neutralization IC80 [20]: 0.42 mg/L; neutralization IC50 [21]: 5.82 mg/L; neutralization IC80 [22]: > 50 mg/L; neutralization IC80 [23]: 0.287 mg/L; neutralization IC50 [24]: 0.28 mg/L; neutralization IC80 [25]: > 50 mg/L; neutralization IC50 [26]: 0.005 mg/L; neutralization IC80 [27]: > 50 mg/L; neutralization IC50 [28]: 0.022 mg/L; neutralization IC80 [29]: > 50 mg/L; neutralization IC50 [30]: 0.4 mg/L; neutralization IC50 [31]: 0.007 mg/L; neutralization IC50 [32]: 0.004 mg/L; neutralization IC80 [33]: > 50 mg/L; neutralization IC80 [34]: 0.029 mg/L; neutralization IC50 [35]: 0.076 mg/L; neutralization IC80 [36]: 0.011 mg/L; neutralization IC80 [37]: 0.07 mg/L; neutralization IC50 [38]: < 0.001 mg/L; neutralization IC50 [39]: 0.04 mg/L; neutralization IC80 [40]: 0.046 mg/L; neutralization IC50 [41]: < 0.001 mg/L; neutralization IC80 [42]: 0.51 mg/L; neutralization IC50 [43]: 0.014 mg/L; neutralization IC80 [44]: > 50 mg/L; neutralization IC80 [45]: 0.08 mg/L; neutralization IC50 [46]: 0.08 mg/L; neutralization IC50 [47]: > 50 mg/L; neutralization IC50 [48]: 0.02 mg/L; neutralization IC50 [49]: > 50 mg/L; neutralization IC50 [50]: 0.3 mg/L
